{"source": "paper doi:10.64898/2025.12.10.693372", "key": {"[1]": {"target": "SARS-CoV-2 Omicron JD.1.1 spike (S-6P) (SARS-CoV-2) (UniProt P0DTC2)", "assay": "cryo-EM structure"}, "[2]": {"target": "SARS-CoV-2 Omicron LP.8.1 spike (S-6P) (SARS-CoV-2) (UniProt P0DTC2)", "assay": "cryo-EM structure"}}, "data": [{"substance": "SARS-CoV-2 Omicron JD.1.1 spike (S-6P) (from UniProt P0DTC2 14-1211) (natural protein)", "values": [{"measurement": "stoichiometry N", "setting": "[1]", "value": 3}]}, {"substance": "SARS-CoV-2 Omicron LP.8.1 spike (S-6P) (from UniProt P0DTC2 14-1211) (natural protein)", "values": [{"measurement": "stoichiometry N", "setting": "[2]", "value": 3}]}]}
